The values that follow are results of earlier work, collected in publication PMC3309041.

For the series, the target named is IL-8 (monomeric) (Homo sapiens) (UniProt P10145). The settings on record: cited from earlier work.
Chain of IL-8 (monomeric) (Homo sapiens) (P10145 28-99): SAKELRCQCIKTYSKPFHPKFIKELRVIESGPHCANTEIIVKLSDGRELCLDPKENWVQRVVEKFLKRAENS

Chain of CXCR1 N-terminal peptide N-terminus (P21109 11-44): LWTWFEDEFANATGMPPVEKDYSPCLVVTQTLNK

One may read the Kd as the equilibrium constant for the complex coming apart. Take “CXCR1 N-terminal peptide N-terminus (from UniProt P21109)”: the dissociation constant (Kd) is 8.6 µM.
